In publication PMC7475177, “[…] RESPONSE FACTOR39–MYB8 complex regulates low-temperature-induced lignification of loquat fruit”:

Biological target: EjERF39 (Eriobotrya japonica cv. Luoyangqing …, UniProt A0A482LZG5 1-253)
Assay: EMSA; not given in the material; EMSA as described by Ge et al. (2017)
Settings: protein: recombinant; tags: GST (pGEX-4T-1); label: 3' biotin

Chain of EjERF39 (A0A482LZG5 entry or part of it): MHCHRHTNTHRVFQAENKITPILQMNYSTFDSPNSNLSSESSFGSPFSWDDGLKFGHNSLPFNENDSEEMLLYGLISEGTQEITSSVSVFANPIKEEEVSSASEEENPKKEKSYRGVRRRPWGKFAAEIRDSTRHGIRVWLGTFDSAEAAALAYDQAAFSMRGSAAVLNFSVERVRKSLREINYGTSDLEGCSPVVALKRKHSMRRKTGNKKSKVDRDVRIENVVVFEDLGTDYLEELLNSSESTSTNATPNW

B1: Ej4CL1 promoter DRE1 probe (dsDNA)
DNA 1: TCGCCTTGTTGGTTATGCCGACGCAGGATACTTGTCTG
DNA 2: CAGACAAGTATCCTGCGTCGGCATAACCAACAAGGCGA
binding result: no binding

B2: Ej4CL1 promoter DRE2 probe (dsDNA)
DNA 1: GTTCACAAGACAATCTGGCCGACCTCTTCACAAAATCAGT
DNA 2: ACTGATTTTGTGAAGAGGTCGGCCAGATTGTCTTGTGAAC
binding result: binds
